# In the Immune Epitope Database (IEDB):
# What was measured:
# HLA-B*48:01 = assay: IEDB peptide-MHC binding, purified MHC/competitive/fluorescence; filed as Kd, often an IC50 or EC50 that approximates it; ≥ and ≤ were set here for values at or beyond the usual limits of such assays; conditions: source organism: Orthomarburgvirus marburgense
# HLA-A*69:01 = assay: as above; conditions: source organism: Orthomarburgvirus marburgense
# HLA-B*15:17 = assay: as above; conditions: source organism: Orthomarburgvirus marburgense
# HLA-A*02:06 = assay: as above; conditions: source organism: Orthomarburgvirus marburgense
# HLA-A*02:01 [1] = assay: as above; conditions: source organism: Orthomarburgvirus marburgense
# HLA-B*40:01 = assay: IEDB peptide-MHC binding, purified MHC/direct/fluorescence; filed as Kd, often an IC50 or EC50 that approximates it; ≥ and ≤ were set here for values at or beyond the usual limits of such assays; conditions: source organism: Marburg virus - Musoke, Kenya, 1980
# HLA-A*26:01 = assay: as above
# HLA-B*15:01 [2] = assay: as above
# HLA-B*57:01 = assay: as above
# HLA-A*11:01 = assay: as above; conditions: source organism: Marburg virus - Musoke, Kenya, 1980
# HLA-A*03:01 = assay: as above
# HLA-B*39:01 [3] = assay: as above; conditions: source organism: Orthomarburgvirus marburgense
# HLA-A*24:03 = assay: as above
# HLA-B*27:05 = assay: as above; conditions: source organism: Marburg virus - Musoke, Kenya, 1980
# HLA-B*08:02 = assay: as above; conditions: source organism: Orthomarburgvirus marburgense
# HLA-B*58:01 = assay: as above; conditions: source organism: Marburg virus - Musoke, Kenya, 1980
# HLA-B*46:01 = assay: as above
# HLA-A*31:01 = assay: as above; conditions: source organism: Marburg virus - Musoke, Kenya, 1980
# HLA-B*18:01 = assay: as above
# HLA-A*01:01 = assay: as above; conditions: source organism: Marburg virus - Musoke, Kenya, 1980
# HLA-B*51:01 = assay: as above; conditions: source organism: Encephalitozoon cuniculi GB-M1
# HLA-A*02:16 = assay: as above; conditions: source organism: Encephalitozoon cuniculi GB-M1
# HLA-B*27:03 = assay: as above; conditions: source organism: Encephalitozoon cuniculi GB-M1
# HLA-A*02:12 = assay: as above; conditions: source organism: Encephalitozoon cuniculi GB-M1
# HLA-A*02:19 = assay: as above; conditions: source organism: Encephalitozoon cuniculi GB-M1
# HLA-A*02:01 [4] = assay: as above; conditions: source organism: Encephalitozoon cuniculi GB-M1
# HLA-A*02:11 = assay: as above; conditions: source organism: Encephalitozoon cuniculi GB-M1
# HLA-A*02:03 = assay: as above; conditions: source organism: Encephalitozoon cuniculi GB-M1
# HLA-B*15:01 [5] = assay: IEDB peptide-MHC binding, purified MHC/competitive/fluorescence; filed as Kd, often an IC50 or EC50 that approximates it; ≥ and ≤ were set here for values at or beyond the usual limits of such assays; conditions: source organism: Escherichia coli O157:H7 str. EDL933
# HLA-B*08:01 = assay: as above; conditions: source organism: Escherichia coli O157:H7 str. EDL933
# HLA-B*39:01 [6] = assay: as above; conditions: source organism: Escherichia coli O157:H7 str. EDL933
# HLA-B*07:02 = assay: as above; conditions: source organism: Escherichia coli O157:H7 str. EDL933
# [7] = source organism: Marburg virus - Musoke, Kenya, 1980
# [8] = source organism: Encephalitozoon cuniculi GB-M1
sequence,measurement,setting,value
LYKTIVNIW,Kd,HLA-B*48:01,≥ 20 µM
same,Kd,HLA-A*69:01,1.58 µM
same,Kd,HLA-B*15:17,≥ 20 µM
same,Kd,HLA-A*02:06,0.11 µM
same,Kd,HLA-A*02:01 [1],0.0509 µM
same,Kd,HLA-B*40:01,≥ 20 µM
same,Kd,HLA-A*26:01; source organism: Orthomarburgvirus marburgense,≥ 20 µM
same,Kd,HLA-B*15:01 [2]; [7],≥ 20 µM
same,Kd,HLA-B*57:01; [7],≥ 20 µM
same,Kd,HLA-A*11:01,≥ 20 µM
same,Kd,HLA-A*03:01; [7],≥ 20 µM
same,Kd,HLA-B*39:01 [3],≥ 20 µM
same,Kd,HLA-A*24:03; [7],0.16 µM
same,Kd,HLA-B*27:05,≥ 20 µM
same,Kd,HLA-B*08:02,≥ 20 µM
same,Kd,HLA-B*58:01,≥ 20 µM
same,Kd,HLA-B*46:01; [7],≥ 20 µM
same,Kd,HLA-A*31:01,≥ 20 µM
same,Kd,HLA-B*18:01; [7],≥ 20 µM
same,Kd,HLA-A*01:01,≥ 20 µM
MPFDPSELV,Kd,HLA-B*51:01,0.074 µM
same,Kd,HLA-A*02:16,≥ 20 µM
same,Kd,HLA-B*27:03,≥ 20 µM
same,Kd,HLA-A*26:01; [8],≥ 20 µM
same,Kd,HLA-A*02:12,≥ 20 µM
same,Kd,HLA-B*15:01 [2]; [8],≥ 20 µM
same,Kd,HLA-B*57:01; [8],≥ 20 µM
same,Kd,HLA-A*02:19,≥ 20 µM
same,Kd,HLA-A*02:01 [4],≥ 20 µM
same,Kd,HLA-A*03:01; [8],≥ 20 µM
same,Kd,HLA-A*02:11,≥ 20 µM
same,Kd,HLA-A*24:03; [8],≥ 20 µM
same,Kd,HLA-B*46:01; [8],≥ 20 µM
same,Kd,HLA-A*02:03,≥ 20 µM
same,Kd,HLA-B*18:01; [8],≥ 20 µM
MQRSGMLSL,Kd,HLA-B*15:01 [5],0.08 µM
same,Kd,HLA-B*08:01,0.197 µM
same,Kd,HLA-B*39:01 [6],0.061 µM
same,Kd,HLA-B*07:02,0.007 µM
